Our source for the CH3 transferred values is article PMC6684798, “Structural basis for the target specificity of actin histidine methyltransferase SETD3” (Nature Communications, 2019).

For the experiment, the target named is T1, SETD3 (Homo sapiens, UniProt Q86TU7).
T1 construct: GST (cleaved yes); made in house; host or cells: Escherichia coli BL21(DE3) CodonPlus
T1 sequence (Q86TU7 1-594): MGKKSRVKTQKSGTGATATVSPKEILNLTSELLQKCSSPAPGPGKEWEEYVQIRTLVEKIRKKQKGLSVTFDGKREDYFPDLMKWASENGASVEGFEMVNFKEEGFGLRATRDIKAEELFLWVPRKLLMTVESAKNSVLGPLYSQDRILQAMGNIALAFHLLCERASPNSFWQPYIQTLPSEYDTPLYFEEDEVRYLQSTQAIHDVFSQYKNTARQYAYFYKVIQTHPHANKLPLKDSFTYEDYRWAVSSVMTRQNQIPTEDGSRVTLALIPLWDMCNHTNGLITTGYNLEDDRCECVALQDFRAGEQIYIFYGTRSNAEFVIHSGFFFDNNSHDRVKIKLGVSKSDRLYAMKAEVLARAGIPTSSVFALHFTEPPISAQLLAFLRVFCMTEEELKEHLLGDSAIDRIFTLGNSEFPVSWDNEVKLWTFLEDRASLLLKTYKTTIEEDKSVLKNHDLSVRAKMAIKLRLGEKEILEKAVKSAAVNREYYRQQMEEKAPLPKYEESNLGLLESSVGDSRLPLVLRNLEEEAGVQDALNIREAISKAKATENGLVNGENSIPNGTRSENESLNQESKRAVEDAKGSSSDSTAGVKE
Kind of experiment: SETD3 activity on K73(66-80) at two temperatures (Supplementary Fig. 3c). It counts as biochemical. To be noted: overnight, pH 8.0, [E]=15 µM, [SAM]=100 µM, [S]=700 µM. On the procedure:
Recombinant human SETD3 (pXC2003) was expressed as a GST-fusion[22] in Escherichia coli BL21(DE3) CodonPlus^TM cells (Stratagene). The SETD3 mutants at residue 255 (N255A; pXC2093 and N255V; pXC2094) were generated with Q5 Site-Directed Mutagenesis Kit (New England Biolabs), confirmed by sequencing and the same protocol for expression and purification were followed. Briefly, the purification was conducted in a BIO-RAD NGC^TM system using a three-column chromatography of glutathione-sepharose, HiTrap Q-HP and Superdex 200. The GST tag was removed by PreScisson Protease (purified in-house). The purified SETD3 proteins at a concentration ~25–35 mg/ml were kept at −80 °C in storage buffer for future use [20 mM Tris (pH 8.0), 200 mM NaCl, 5% glycerol, and 0.5 mM tris (2-carboxyethyl) phosphine (TCEP)].
For H73 (residues 66–80), a reaction mixture contained 20 mM Tris/HCl (pH 8.0), 50 mM NaCl, 0.1 mg/ml BSA, 1 mM DTT, 0.18 µM SETD3, 40 µM SAM, and 20 µM H73 peptide, the reaction was performed for 20 min (Supplementary Fig. 3b). For K73 (residues 66–80), a reaction mixture contained 20 mM Tris/HCl (pH 8.0), 50 mM NaCl, 0.1 mg/ml BSA, 1 mM DTT, 15 µM SETD3, 100 µM SAM, and 700 µM K73 peptide, the reaction was performed overnight (Supplementary Fig. 3c). All reactions were terminated by the addition of TFA to 0.1% (v/v). […]
conditions optimized for H73(66-80) (red line): [E]=0.18 µM, [SAM]=40 µM, [S]=20 µM, pH 8.0 at room temperature for indicated reaction time. b, SETD3 activity on H73(66-80) at two difference temperatures under the conditions of [E]=0.18 µM, [SAM]=40 µM, [SH7 3]=20 µM at pH 8. 0 for 20 min reaction. c, SETD3 activity on K73 (66-80 ) at room temperature (~22 °C) and 37 °C under the conditions of increased amounts of [E]=15 µM, [SAM]=100 µM and [S K73]=700 µM at pH 8.0 for overnight reaction. Data represent the mean ± SD of N number of independent determinations (N=2 in panels a and b and N=4 in panel c) performed in duplicate. Source data are provided as a Source Data file. d, A stereo image of omit electron density (Fo -Fc) omitting the side chain of K73 in the active site contoured at 4 s above the mean.
(1 picture or pasted object on this page, not shown here)

Turning to “K73(66–80): K73-containing (H73K) actin peptide, residues 66–80 (TLKYPIEKGIVTNWD; UniProt P60709 66-80, looked up, variant H73K)”, the CH3 transferred by setting is: (37 °C, replicate 1) 1.773 µM; (37 °C, replicate 2) 2.482 µM; (37 °C, replicate 3) 3.183 µM; (37 °C, replicate 4) 3.325 µM; (RT (~22 °C), replicate 1) 0.6813 µM; (RT (~22 °C), replicate 2) 0.8003 µM. Moreover, the CH3 transferred (RT (~22 °C), replicate 3) was 0.7535 µM and the CH3 transferred (RT (~22 °C), replicate 4) is 0.7963 µM.
